Test results published in publication PMC10669680.

Molecular target: HIV-1 reverse transcriptase p51 (isolated polymerase domain) with the C38V/C280S/M357T substitutions, no affinity tag (HIV-1)
Assay: SEC; Superdex 200 Increase 5/150, SEC buffer 50 mM Bis-Tris, 1 M NaCl, 1 mM CDTA, pH 6.5; samples 80% SEC buffer, 20% glycerol; [NaCl] varied 0.15-1.0 M and [p51] varied 10-80 µM; monomer to dimer

Substance: HIV-1 reverse transcriptase p51 (isolated polymerase domain) with the C38V/C280S/M357T substitutions, no affinity tag (domain or fragment)
- stoichiometry N: 2
